Changes are numbered by the printed parent chain.
B1: FLAG-DA1 (other)
chain: MGWFNKIFKGSNQRLRVGNNKHNHNVYYDNYPTASHDDEPSAADTDADNDEPHHTQEPSTSEDNTSNDQENEDIDRAIALSLLEENQEQTSISGKYSMPVDEDEQLARALQESMVVGNSPRHKSGSTYDNGNAYGAGDLYGNGHMYGGGNVYANGDIYYPRPITFQMDFRICAGCNMEIGHGRFLNCLNSLWHPECFRCYGCSQPISEYEFSTSGNYPFHKACYRERYHPKCDVCSHFIPTNHAGLIEYRAHPFWVQKYCPSHEHDATPRCCSCERMEPRNTRYVELNDGRKLCLECLDSAVMDTMQCQPLYLQIQNFYEGLNMKVEQEVPLLLVERQALNEAREGEKNGHYHMPETRGLCLSEEQTVSTVRKRSKHGTGKWAGNITEPYKLTRQCEVTAILILFGLPRLLTGSILAHEMMHAWMRLKGFRTLSQDVEEGICQVMAHKWLDAELAAGSTNSNAASSSSSSQGLKKGPRSQYERKLGEFFKHQIESDASPVYGDGFRAGRLAVHKYGLRKTLEHIQMTGRFPV
notes: E. coli expressed prey protein; also called FLAG-tagged wild-type DA1; AtDA1; not shown: FLAG tag
B2: FLAG-da1lim8 (other)
chain: B1 chain with C172G, C175G, C199G, C202G
notes: E. coli expressed prey protein; It is a DA1 variant with a mutated LIM domain; also called FLAG-tagged DA1lim8; not shown: FLAG tag

Molecular target: T1, GST-GUS (UniProt P05804 1-603, limits assumed)
T1 construct: Negative control bait; also called GST-tagged beta-glucuronidase; negative control GST-GUS; not shown: GST tag
Experiment: in vitro GST pull-down on glutathione sepharose beads, immunoblot for GST and FLAG
Method: E. coli expressed GST-tagged bait proteins were incubated with E. coli expressed FLAG-tagged prey proteins before purification on glutathione sepharose beads and immunoblotting for GST and FLAG.
Following this growth phase, the cultures were centrifuged at 4500×g for 10 minutes, the supernatants were discarded and the pellets resuspended at 4° C. in 2.5 ml TGH Buffer (50 mM HEPES (pH7.5), 150 mM NaCl, 1% Triton-X-100, 10% Glycerol, 1 mM DTT, 1 complete EDTA-free protease inhibitor tablet (per 50 ml) (Roche 11873580001)). The bacterial suspension was then sonicated (on ice) for four bursts of ten seconds, separated by 20-second intervals, before being centrifuged at 12 000×g for 20 minutes to pellet any cellular debris. Cleared sonicates were then stored on ice while a 50% slurry of washed glutathione sepharose beads (GE Life Sciences 17-0756-01) was prepared according to the manufacturer's instructions. 20 μl of the 50% glutathione sepharose slurry was then combined with 2.5 ml of protein extract from bait protein (GST-tagged) expressing cells and 2.5 ml of protein extract from prey protein (HA-/FLAG-/HIS-tagged) expressing cells. […] After washing, proteins were eluted with 35 μl GST-elution buffer (50 mM TRIS-glycine (pH8.0), 10 mM reduced glutathione) over 30 minutes at 4° C. before being analysed by western blot analysis. […]

T1 sequence (P05804 whole entry): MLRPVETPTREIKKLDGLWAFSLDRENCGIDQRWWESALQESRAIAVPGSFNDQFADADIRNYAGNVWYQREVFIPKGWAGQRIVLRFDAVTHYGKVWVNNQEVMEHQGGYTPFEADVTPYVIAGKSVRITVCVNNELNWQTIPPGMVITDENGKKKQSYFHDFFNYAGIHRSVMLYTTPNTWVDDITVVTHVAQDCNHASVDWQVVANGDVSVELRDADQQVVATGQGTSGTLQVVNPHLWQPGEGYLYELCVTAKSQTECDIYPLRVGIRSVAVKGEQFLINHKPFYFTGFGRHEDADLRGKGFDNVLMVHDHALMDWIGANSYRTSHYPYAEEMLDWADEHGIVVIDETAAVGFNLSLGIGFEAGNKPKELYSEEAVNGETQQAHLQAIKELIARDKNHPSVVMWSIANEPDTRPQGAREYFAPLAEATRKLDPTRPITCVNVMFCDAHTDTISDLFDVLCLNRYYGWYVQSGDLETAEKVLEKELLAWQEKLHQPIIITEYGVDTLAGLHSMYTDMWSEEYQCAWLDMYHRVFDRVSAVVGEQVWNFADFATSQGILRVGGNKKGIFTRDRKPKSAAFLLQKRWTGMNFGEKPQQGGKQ

Row | Binder | binding result
1 | B1 | no binding
2 | B2 | no binding
